Measured values as given in patent publication US20260166139A1.
Values joined by “and” are separate entries in the source; they are usually repeats but may differ in a detail not shown here. Equal entries are not always repeated.

Legend:
human CTLA4 (human) [1] = target: human CTLA4 (human) (UniProt P16410); assay: ELISA, coat CTLA4 0.5 ug/ml; antibody 1:27 (start 1 ug/ml)
CTLA4-mFc [2] = assay: competitive ELISA, CTLA4-mFc coated, competitor B7/2-His; antibody 1 µg/ml diluted 1:27
[3] = target: monkey CTLA4-hFc (monkey); assay: ELISA, coat monkey CTLA4-hFc 0.25 ug/ml; antibody 1:243 (start 1 ug/ml)
CTLA4-mFc [4] = assay: competition ELISA, coat B7/1-hFc 0.2 ug/ml (competitor), CTLA4-mFc 0.3 ug/ml detected; antibody 1:81 (start 3 ug/ml)
human CTLA4 (human) [5] = target: human CTLA4 (human) (UniProt P16410); assay: ELISA, coat CTLA4 0.5 ug/ml; antibody 1 ug/ml
CTLA4-mFc [6] = assay: competitive ELISA, CTLA4-mFc coated, competitor B7/2-His; antibody 1.5 µg/ml diluted 1:243
CTLA4-mFc [7] = assay: competitive ELISA, CTLA4-mFc coated, competitor B7/2-His; antibody 1 µg/ml diluted 1:9
CTLA4-mFc [8] = assay: competition ELISA, coat B7/1-hFc 0.2 ug/ml (competitor), CTLA4-mFc 0.3 ug/ml detected; antibody 1:243 (start 3 ug/ml)
human CTLA4 (human) [9] = target: human CTLA4 (human) (UniProt P16410); assay: ELISA, coat human CTLA4 0.5 ug/ml; antibody 1:3 (start 1 ug/ml)
[10] = target: monkey CTLA4-hFc (monkey); assay: ELISA on coated CTLA4, source Monkey (row of 8D2H3L3)
CTLA4-mFc [11] = assay: competition ELISA, coat B7/1-hFc 0.2 ug/ml (competitor), CTLA4-mFc 0.3 ug/ml detected; antibody 3 ug/ml
human CTLA4 (human) [12] = target: human CTLA4 (human) (UniProt P16410); assay: ELISA, coat CTLA4 0.5 ug/ml; antibody 1:3 (start 1 ug/ml)
CTLA4-mFc [13] = assay: competitive ELISA, B7/1-hFc coated (competitor), CTLA4-mFc added; antibody 5 µg/ml diluted 1:27
CTLA4-mFc [14] = assay: competitive ELISA, CTLA4-mFc coated, competitor B7/2-His; antibody 0 (no antibody)
CTLA4-mFc [15] = assay: competitive ELISA, CTLA4-mFc coated, competitor B7/2-His; antibody 1.5 µg/ml diluted 1:27
human CTLA4 (human) [16] = target: human CTLA4 (human) (UniProt P16410); assay: ELISA, coat human CTLA4 0.5 ug/ml; antibody 0 (blank)
[17] = target: monkey CTLA4-hFc (monkey); assay: ELISA, coat monkey CTLA4-hFc 0.25 ug/ml; antibody 1:81 (start 1 ug/ml)
murine CTLA4 (murine) = murine CTLA4 (murine) (UniProt P09793); assay: ELISA on coated CTLA4, source Mouse (row of 8D2(Re))
CTLA4-mFc [18] = assay: competitive ELISA, CTLA4-mFc coated, competitor B7/2-His; antibody 1.5 µg/ml
[19] = target: monkey CTLA4-hFc (monkey); assay: ELISA, coat monkey CTLA4-hFc 0.25 ug/ml; antibody 1 ug/ml
CTLA4-mFc [20] = assay: competitive ELISA, CTLA4-mFc coated, competitor B7/2-His; antibody 1 µg/ml diluted 1:243
human CTLA4 (human) [21] = target: human CTLA4 (human) (UniProt P16410); assay: ELISA, coat human CTLA4 0.5 ug/ml; antibody 1:729 (start 1 ug/ml)
CTLA4-mFc [22] = assay: competitive ELISA, CTLA4-mFc coated, competitor B7/2-His; antibody 1 µg/ml diluted 1:3
CTLA4-mFc [23] = assay: competitive ELISA, CTLA4-mFc coated, competitor B7/2-His; antibody 3 µg/ml diluted 1:3
CTLA4-mFc [24] = assay: competition ELISA, coat B7/1-hFc 0.2 ug/ml (competitor), CTLA4-mFc 0.3 ug/ml detected; antibody 1:27 (start 3 ug/ml)
[25] = target: monkey CTLA4-hFc (monkey); assay: ELISA, coat monkey CTLA4-hFc 0.25 ug/ml; antibody 1:729 (start 1 ug/ml)

Sequence of control antibody 11.2.1 (VH): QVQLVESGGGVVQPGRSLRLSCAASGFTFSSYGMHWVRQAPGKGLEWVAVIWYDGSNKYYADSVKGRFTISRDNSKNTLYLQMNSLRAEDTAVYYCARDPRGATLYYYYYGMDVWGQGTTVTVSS
Sequence of control antibody 11.2.1 (VL): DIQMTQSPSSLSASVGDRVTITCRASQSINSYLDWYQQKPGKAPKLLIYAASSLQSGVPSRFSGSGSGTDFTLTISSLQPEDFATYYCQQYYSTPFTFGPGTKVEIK
Sequence of CTLA4-mFc (chain, as listed by the source limits assumed): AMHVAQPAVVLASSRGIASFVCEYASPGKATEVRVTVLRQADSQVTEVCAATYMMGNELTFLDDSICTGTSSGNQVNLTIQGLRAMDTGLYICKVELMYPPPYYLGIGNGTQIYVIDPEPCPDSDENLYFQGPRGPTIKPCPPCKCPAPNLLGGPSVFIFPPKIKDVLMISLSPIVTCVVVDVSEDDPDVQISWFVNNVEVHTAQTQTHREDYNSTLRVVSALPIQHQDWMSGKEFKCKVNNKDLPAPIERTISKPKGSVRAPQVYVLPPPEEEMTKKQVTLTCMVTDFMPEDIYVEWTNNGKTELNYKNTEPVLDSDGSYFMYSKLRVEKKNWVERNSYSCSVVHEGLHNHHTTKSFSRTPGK
Sequence of human CTLA4 (human) (P16410 36-161 limits assumed): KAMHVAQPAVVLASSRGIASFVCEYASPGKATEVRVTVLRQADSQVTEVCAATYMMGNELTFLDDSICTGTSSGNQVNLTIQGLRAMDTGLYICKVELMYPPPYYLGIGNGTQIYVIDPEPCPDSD

control antibody 11.2.1
absorbance at 450 nm (human CTLA4 (human) [1]): 2.13 and 2.28
absorbance at 450 nm (CTLA4-mFc [2]): 0.57
absorbance at 450 nm [3]: 0.13 and 0.172
absorbance at 450 nm (CTLA4-mFc [4]): 0.65 and 0.613
absorbance at 450 nm (human CTLA4 (human) [5]): 2.75 and 2.69
absorbance at 450 nm (CTLA4-mFc [6]): 0.93 and 0.754
absorbance at 450 nm (CTLA4-mFc [7]): 0.17 and 0.16
absorbance at 450 nm (CTLA4-mFc [8]): 0.9 and 0.52
absorbance at 450 nm (human CTLA4 (human) [9]): 3.5 and 3.48
EC50 [10]: 75 pM
absorbance at 450 nm (CTLA4-mFc [11]): 0.101 and 0.105
absorbance at 450 nm (human CTLA4 (human) [12]): 2.56 and 2.66
absorbance at 450 nm (CTLA4-mFc [13]): 0.488 and 0.369
absorbance at 450 nm (CTLA4-mFc [14]): 0.987 and 0.819
absorbance at 450 nm (CTLA4-mFc [15]): 0.622 and 0.529
absorbance at 450 nm (human CTLA4 (human) [16]): 0.057 and 0.061
absorbance at 450 nm [17]: 0.297 and 0.313
EC50 (murine CTLA4 (murine)): 23 pM
absorbance at 450 nm (CTLA4-mFc [18]): 0.372 and 0.494
absorbance at 450 nm [19]: 1.72 and 1.63
absorbance at 450 nm (CTLA4-mFc [20]): 0.84 and 0.85
absorbance at 450 nm (human CTLA4 (human) [21]): 0.253 and 0.263
absorbance at 450 nm (CTLA4-mFc [22]): 0.05
absorbance at 450 nm (CTLA4-mFc [23]): 0.387 and 0.402
absorbance at 450 nm (CTLA4-mFc [24]): 0.597 and 0.579
absorbance at 450 nm [25]: 0.082 and 0.094
